The sequences below were run on Escherichia coli TOP10 (assay: shrunken log2 fold change of peptide-encoding DNA abundance (4.5 h post-induction vs induction); higher = less antimicrobial activity (less host growth inhibition)). Conditions: time post-induction: 4.5 h; library: site-saturation at positions 5, 18, 19, 20.
RRIRLRPPRLPRPRPRPTCSPRP was tested, and the “shrunken log2 fold change” value was -0.0337.
With RRIRSRPPRLPRPRPRPVHDPRP the “shrunken log2 fold change” value was -0.0657.
In the case of RRIRTRPPRLPRPRPRPRCVPRP, the “shrunken log2 fold change” value is reported as -0.0783.
In the case of RRIRPRPPRLPRPRPRPWMTPRP, the “shrunken log2 fold change” value is reported as 0.0158.
In the case of RRIRNRPPRLPRPRPRPDQSPRP, the “shrunken log2 fold change” value is reported as 0.00307.
With RRIRIRPPRLPRPRPRPKIIPRP the “shrunken log2 fold change” value was -0.468.
In the case of RRIRQRPPRLPRPRPRPKSEPRP, the “shrunken log2 fold change” value is reported as -0.0211.
With RRIRTRPPRLPRPRPRPSDLPRP the “shrunken log2 fold change” value was -0.0743.
For RRIRTRPPRLPRPRPRPMGHPRP, the “shrunken log2 fold change” value was -0.118.
RRIRERPPRLPRPRPRPGETPRP was tested, and the “shrunken log2 fold change” value was 0.0954.
With RRIRWRPPRLPRPRPRPHCFPRP the “shrunken log2 fold change” value was -0.0202.
In the case of RRIRSRPPRLPRPRPRPDVWPRP, the “shrunken log2 fold change” value is reported as 0.49.
RRIRPRPPRLPRPRPRPSLNPRP was tested, and the “shrunken log2 fold change” value was -0.539.
RRIRARPPRLPRPRPRPSFDPRP was tested, and the “shrunken log2 fold change” value was 0.103.
In the case of RRIRERPPRLPRPRPRPGGVPRP, the “shrunken log2 fold change” value is reported as 0.0164.
With RRIRGRPPRLPRPRPRPHLFPRP the “shrunken log2 fold change” value was 0.0842.
With RRIRMRPPRLPRPRPRPCVPPRP the “shrunken log2 fold change” value was 0.209.
With RRIRPRPPRLPRPRPRPTRPPRP the “shrunken log2 fold change” value was 0.782.
RRIRCRPPRLPRPRPRPINLPRP was tested, and the “shrunken log2 fold change” value was -0.355.
In the case of RRIRIRPPRLPRPRPRPGVHPRP, the “shrunken log2 fold change” value is reported as 0.241.
In the case of RRIRQRPPRLPRPRPRPIFEPRP, the “shrunken log2 fold change” value is reported as -0.224.
In the case of RRIRNRPPRLPRPRPRPNFCPRP, the “shrunken log2 fold change” value is reported as -0.0258.
For RRIRMRPPRLPRPRPRPLQPPRP, the “shrunken log2 fold change” value was 0.737.
For RRIRRRPPRLPRPRPRPDSRPRP, the “shrunken log2 fold change” value was 0.0229.
RRIRFRPPRLPRPRPRPRQPPRP was tested, and the “shrunken log2 fold change” value was 0.68.
For RRIRLRPPRLPRPRPRPFPNPRP, the “shrunken log2 fold change” value was 0.203.
RRIRNRPPRLPRPRPRPIDQPRP was tested, and the “shrunken log2 fold change” value was -0.058.
RRIRQRPPRLPRPRPRPHLMPRP was tested, and the “shrunken log2 fold change” value was 0.106.
With RRIRFRPPRLPRPRPRPMPQPRP the “shrunken log2 fold change” value was -0.0791.
For RRIRTRPPRLPRPRPRPYLAPRP, the “shrunken log2 fold change” value was -0.378.
For RRIRKRPPRLPRPRPRPIELPRP, the “shrunken log2 fold change” value was -0.025.
With RRIRVRPPRLPRPRPRPRALPRP the “shrunken log2 fold change” value was 0.307.
For RRIRLRPPRLPRPRPRPKPPPRP, the “shrunken log2 fold change” value was 0.586.
For RRIRFRPPRLPRPRPRPKSCPRP, the “shrunken log2 fold change” value was 0.0245.
In the case of RRIRFRPPRLPRPRPRPQSYPRP, the “shrunken log2 fold change” value is reported as -0.111.
For RRIRQRPPRLPRPRPRPNWDPRP, the “shrunken log2 fold change” value was 0.126.
RRIRCRPPRLPRPRPRPHPKPRP was tested, and the “shrunken log2 fold change” value was -0.102.
With RRIRGRPPRLPRPRPRPHTEPRP the “shrunken log2 fold change” value was -0.0408.
RRIRFRPPRLPRPRPRPVCNPRP was tested, and the “shrunken log2 fold change” value was -0.0727.
In the case of RRIRKRPPRLPRPRPRPFTNPRP, the “shrunken log2 fold change” value is reported as -0.0844.
RRIRPRPPRLPRPRPRPYCWPRP was tested, and the “shrunken log2 fold change” value was -0.473.
RRIRFRPPRLPRPRPRPNAYPRP was tested, and the “shrunken log2 fold change” value was -0.347.
In the case of RRIRTRPPRLPRPRPRPIQGPRP, the “shrunken log2 fold change” value is reported as -0.0537.
In the case of RRIRGRPPRLPRPRPRPFFSPRP, the “shrunken log2 fold change” value is reported as 0.125.
With RRIRGRPPRLPRPRPRPHSLPRP the “shrunken log2 fold change” value was -0.0762.
RRIRNRPPRLPRPRPRPPVLPRP was tested, and the “shrunken log2 fold change” value was 0.124.
For RRIRVRPPRLPRPRPRPYMTPRP, the “shrunken log2 fold change” value was -0.566.
For RRIRHRPPRLPRPRPRPLQGPRP, the “shrunken log2 fold change” value was 0.00978.
With RRIRDRPPRLPRPRPRPECMPRP the “shrunken log2 fold change” value was 1.07.
RRIRWRPPRLPRPRPRPRMFPRP was tested, and the “shrunken log2 fold change” value was 0.182.
With RRIRWRPPRLPRPRPRPQKNPRP the “shrunken log2 fold change” value was 0.0916.
With RRIRLRPPRLPRPRPRPYWSPRP the “shrunken log2 fold change” value was -1.41.
RRIRDRPPRLPRPRPRPSSEPRP was tested, and the “shrunken log2 fold change” value was 0.186.
RRIRARPPRLPRPRPRPIAIPRP was tested, and the “shrunken log2 fold change” value was 0.0259.
In the case of RRIRKRPPRLPRPRPRPMDMPRP, the “shrunken log2 fold change” value is reported as 0.15.
For RRIRNRPPRLPRPRPRPESLPRP, the “shrunken log2 fold change” value was 0.0505.
RRIRSRPPRLPRPRPRPMHPPRP was tested, and the “shrunken log2 fold change” value was -0.0546.
In the case of RRIRLRPPRLPRPRPRPSKEPRP, the “shrunken log2 fold change” value is reported as -0.4.
In the case of RRIRGRPPRLPRPRPRPWTEPRP, the “shrunken log2 fold change” value is reported as 0.128.
With RRIRRRPPRLPRPRPRPSGTPRP the “shrunken log2 fold change” value was 0.494.

— the supplement of paper PMC9112550, “Optimization of the antimicrobial peptide Bac7 by deep mutational scanning” (BMC Biology, 2022)
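Note: peptides expressed intracellularly from a pBAD plasmid library in pooled LB shake-flask culture, induced with 0.3% L-arabinose, DNA abundance read by NGS, three biological replicates, DESeq2 with apeglm shrinkage.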
